The target in assay [1] is T1, N-terminal His-tagged DnaK (His-DnaK) (E. coli, UniProt P0A6Y8 1-638).
T1 construct: also called DnaKWT; bacterial Hsp70; source: E. coli BL21 (DE3), from pDnaKWT (ASKA clone), purified (TALON, Mono Q, Superdex G-200); not shown: His tag, N-terminal, kept
Nature of the assay: peptide or protein array; CelluSpot array of cellulose-bound peptides on glass slides (8-residue peptides overlapping by seven); 50 nM His-DnaK in DB buffer (25 mM Tris-HCl pH 7.5, 150 mM NaCl, 10 mM KCl, 0.05% Tween 20, 5% sucrose) overnight at 4 °C; detected with HRP-conjugated anti-His antibody. Particulars: both partners purified.

The target of assay [2] is T1, N-terminal His-tagged DnaK (His-DnaK). The assay can be described thus: SPR; BIAcore T200; CsgA peptides immobilised on a CM7 chip by EDC/NHS coupling; DnaK 50–1000 nM as analyte, single-cycle kinetics; 25 °C; HBS-DM buffer (10 mM HEPES pH 7.4, 150 mM NaCl, 5 mM MgCl2, 1% dimethylsulfoxide); 30 μL min^−1; fit with a 1:1 binding mode. The conditions noted are these: both partners purified. On the technique in general: Surface plasmon resonance follows binding to a sensor surface in real time, without labels.

This note sets out measurements from paper PMC6123696, “Multitasking of Hsp70 chaperone in the biogenesis of bacterial functional amyloids” (Communications Biology, 2018).

One may read the Kd as the concentration at which binding is half-saturated. For orientation: koff means the rate constant with which the complex falls apart. A lower koff goes with slow dissociation. The kon is the second-order rate constant of association.

T1 sequence (P0A6Y8 whole entry): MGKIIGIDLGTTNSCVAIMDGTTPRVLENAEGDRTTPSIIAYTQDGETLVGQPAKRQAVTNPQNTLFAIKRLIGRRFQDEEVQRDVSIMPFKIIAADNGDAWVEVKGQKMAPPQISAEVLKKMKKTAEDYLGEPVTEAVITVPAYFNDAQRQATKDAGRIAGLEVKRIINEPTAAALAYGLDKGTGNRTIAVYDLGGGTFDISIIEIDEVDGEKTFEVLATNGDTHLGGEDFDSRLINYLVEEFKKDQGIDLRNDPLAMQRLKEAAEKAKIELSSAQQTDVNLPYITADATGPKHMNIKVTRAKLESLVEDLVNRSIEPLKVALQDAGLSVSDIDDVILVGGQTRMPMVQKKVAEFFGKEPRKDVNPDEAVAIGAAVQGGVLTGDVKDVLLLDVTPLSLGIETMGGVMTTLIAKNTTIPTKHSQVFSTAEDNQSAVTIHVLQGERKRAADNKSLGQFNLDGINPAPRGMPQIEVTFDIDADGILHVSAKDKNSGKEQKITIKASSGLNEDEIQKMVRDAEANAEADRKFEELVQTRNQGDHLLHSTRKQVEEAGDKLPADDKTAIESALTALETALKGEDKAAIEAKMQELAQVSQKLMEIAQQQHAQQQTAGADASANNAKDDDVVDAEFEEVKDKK

B1: N-terminal 8-amino acid peptide of CsgA (NH2-KLLKVAAI-COOH) (peptide)
peptide: H-KLLKVAAI-OH
notes: source: synthetic peptide, CelluSpot peptide array (Intavis Bioanalytical Instruments)
As for B1, the binding result in assay [1] was “binds”.

B2: CsgA_(133–151) (R5, the most amyloidogenic of the five repeats) (peptide)
peptide: SSVNVTQVGFGNNATAHQY
notes: source: synthetic peptide (Eurofins Genomics, HPLC >95%)
In assay [2], B2 yielded a Kd of 20.7 nM, a koff of 9.77e-05 s⁻¹ and a kon of 4720 M⁻¹ s⁻¹.

B3: N-terminal 8-amino acid peptide of CsgB (NH2-KNKLLFMM-COOH) (peptide)
peptide: H-KNKLLFMM-OH
notes: as for B1
For the molecule B3, the binding result in assay [1] is “binds”.

B4: CsgA_(2–20) (signal peptide of CsgA without the N-terminal Met) (peptide)
peptide: KLLKVAAIAAIVFSGSALA
notes: also called CsgA signal peptide; source: synthetic peptide (Eurofins Genomics, HPLC >95%)
Regarding B4, in assay [2], the Kd was 2.19 nM, the koff turned out to be 0.000256 s⁻¹ and the kon was determined as 117000 M⁻¹ s⁻¹.
